Laboratory results taken from article PMC6220480.

B1: ULBP3 (UL16 binding protein 3), recombinant (ligand)
chain: DAHSLWYNFTIIHLPRHGQQWCEVQSQVDQKNFLSYDCGSDKVLSMGHLEEQLYATDAWGKQLEMLREVGQRLRLELADTELEDFTPSGPLTLQVRMSCECEADGYIRGSWQFSFDGRKFLLFDSNNRKWTVVHAGARRMKEKWEKDSGLTTFFKMVSMRDCKSWLRDFLMHRKKRLEPTAPPTMAPG
B2: ULBP1 (UL16 binding protein 1), recombinant (ligand)
chain: GWVDTHCLCYDFIITPKSRPEPQWCEVQGLVDERPFLHYDCVNHKAKAFASLGKKVNVTKTWEEQTETLRDVVDFLKGQLLDIQVENLIPIEPLTLQARMSCEHEAHGHGRGSWQFLFNGQKFLLFDSNNRKWTALHPGAKKMTEKWEKNRDVTMFFQKISLGDCKMWLEEFLMYWEQMLDPTKPPSLAPG
B3: ULBP2 (UL16 binding protein 2), recombinant (ligand)
chain: GRADPHSLCYDITVIPKFRPGPRWCAVQGQVDEKTFLHYDCGNKTVTPVSPLGKKLNVTTAWKAQNPVLREVVDILTEQLRDIQLENYTPKEPLTLQARMSCEQKAEGHSSGSWQFSFDGQIFLLFDSEKRMWTTVHPGARKMKEKWENDKVVAMSFHYFSMGDCIGWLEDFLMGMDSTLEPSAGAPLAMSS

Biological target: NKG2D-based chimeric antigen receptor of CYAD-01 cells (full length human NKG2D fused to the CD3zeta signalling domain) (UniProt P26718)

“MICA (major histocompatibility complex class I chain-related A), recombinant (from UniProt Q29983 24-383) (ligand)” and “MICB (major histocompatibility complex class I chain-related B), recombinant (from UniProt Q29980 23-383) (ligand)” cannot be ordered by cytokine secretion by CYAD-01 cells cultured with plate-bound ligand: over 0.25 µg/mL for the first, over 0.25 µg/mL for the second.

B1 and B2 cannot be ordered by cytokine secretion by CYAD-01 cells cultured with plate-bound ligand: over 5 µg/mL for the first, over 5 µg/mL for the second.

In the case of B3, the cytokine secretion by CYAD-01 cells cultured with plate-bound ligand is reported as over 5 µg/mL.
